Four molecules from publication PMC8660796, “Structural and molecular basis for Cardiovirus 2A protein as a viral gene expression switch” can be followed below.

Changes are numbered by the printed parent chain. Names may count otherwise.

For data set [1], the target named is T1, EMCV 2A wild type (Encephalomyocarditis virus (EMCV), UniProt P12296 902-1044).
T1 sequence: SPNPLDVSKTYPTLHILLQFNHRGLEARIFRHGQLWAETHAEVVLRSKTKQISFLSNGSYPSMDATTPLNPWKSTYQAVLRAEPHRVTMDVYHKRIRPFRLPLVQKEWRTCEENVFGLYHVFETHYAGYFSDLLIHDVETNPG
The experiment in a line: MST; labelled 2A; MST: 50 mM Tris-HCl pH 7.8, 150 mM NaCl, 10 mM MgCl2, 2 mM DTT, 0.05% Tween 20, 25 C; EMSA: 10 mM Tris-HCl pH 7.4, ~140 mM salt, 2 mM Mg acetate, 1 mM DTT, 5% glycerol, 100 ug/mL tRNA, 37 C; ITC: 50 mM Tris-HCl pH 7.4, 400 mM NaCl, 25 C; tweezers: 20 mM HEPES pH 7.6, 300 mM KCl, 5 mM MgCl2, 5 mM DTT, 0.05% Tween. As to conditions: protein: recombinant; tags: C-terminal GlySerLysHis6; label: 5' fluorophore (Dylight 650 in MST, A647/Cy5 in EMSA); unlabelled when 2A is labelled; stem-loop. Background: In EMSA bound probe runs differently from free probe, usually more slowly.

Data set [2] concerns the target T1, EMCV 2A wild type. Description: EMSA; MST: 50 mM Tris-HCl pH 7.8, 150 mM NaCl, 10 mM MgCl2, 2 mM DTT, 0.05% Tween 20, 25 C; EMSA: 10 mM Tris-HCl pH 7.4, ~140 mM salt, 2 mM Mg acetate, 1 mM DTT, 5% glycerol, 100 ug/mL tRNA, 37 C; ITC: 50 mM Tris-HCl pH 7.4, 400 mM NaCl, 25 C; tweezers: 20 mM HEPES pH 7.6, 300 mM KCl, 5 mM MgCl2, 5 mM DTT, 0.05% Tween. As to conditions: protein: recombinant; tags: C-terminal GlySerLysHis6; label: 5' Cy5.

Data set [3] addresses T1, EMCV 2A wild type. Description: EMSA; binding restored; MST: 50 mM Tris-HCl pH 7.8, 150 mM NaCl, 10 mM MgCl2, 2 mM DTT, 0.05% Tween 20, 25 C; EMSA: 10 mM Tris-HCl pH 7.4, ~140 mM salt, 2 mM Mg acetate, 1 mM DTT, 5% glycerol, 100 ug/mL tRNA, 37 C; ITC: 50 mM Tris-HCl pH 7.4, 400 mM NaCl, 25 C; tweezers: 20 mM HEPES pH 7.6, 300 mM KCl, 5 mM MgCl2, 5 mM DTT, 0.05% Tween. As to conditions: protein: recombinant; tags: C-terminal GlySerLysHis6; label: 5' Cy5; pseudoknot-like.

B1: EMCV 4 (structured_RNA)
RNA: AGCGGCAGUGUCAUCAAUGGCUCAAACCCUACUGCCGAA
As for B1, the binding result in data set [1] was “no binding”.

B2: EMCV 3 G7C (structured_RNA)
RNA: GGGUUUUUCAGACUCAACGAGCGGCAGUGUCAUCAAUGGCUCAAACCCUACUGCCGAA
Regarding B2, the binding result in data set [2] is “no binding”.

B3: EMCV 3 C37G (structured_RNA)
RNA: B2 RNA with C18G, C48G
Regarding B3, in data set [2], the binding result is “no binding”.

B4: EMCV 3 G7C+C37G (structured_RNA)
RNA: B2 RNA with C48G
On to B4, for which, in data set [3], the binding result is reported as “binds”.
